Test results reported in publication PMC10764798, “A natural biogenic nanozyme for scavenging superoxide radicals” (Nature Communications, 2024).

B1: Bacterioferritin from Escherichia coli str. K-12 substr. MG1655 (natural protein)
chain: not shown
notes: Carries an inorganic iron core; also called EcBfr; Bfr; source: E. coli BL21(DE3), pet22b, ferrous salt added to the medium (biomineralized), purified; copies: 24
B2: Non-heme ferritin from Enterobacteriaceae (E. coli FTn) (natural protein, UniProt P0A998 1-165, looked up)
chain: MLKPEMIEKLNEQMNLELYSSLLYQQMSAWCSYHTFEGAAAFLRRHAQEEMTHMQRLFDYLTDTGNLPRINTVESPFAEYSSLDELFQETYKHEQLITQKINELAHAAMTNQDYPTFNFLQWYVSEQHEEEKLFKSIIDKLSLAGKSGEGLYFIDKELSTLDTQN
notes: Carries an inorganic iron core; also called EcFTn; source: E. coli BL21(DE3), pet22b, ferrous salt added to the medium (biomineralized), purified; copies: 24
B3: DNA protection protein from Sulfolobus solfataricus (natural protein, UniProt P95855 1-188, looked up)
chain: MQEKPQEPKVVGVEILEKSGLDIKKLVDKLVKATAAEFTTYYYYTILRMHLTGMEGEGLKEIAEDARLEDRLHFELMTQRIYELGGGLPRDIRQLADISACSDAYLPENWKDPKEILKVLLEAEQCAIRTWKEVCDMTYGKDPRTYDLAQRILQEEIEHEAWFLELLYGRPSGHFRRSSPGNAPYSKK
notes: Carries an inorganic iron core; also called ssDps; S. solfataricus Dps; source: E. coli BL21(DE3), pet22b, ferrous salt added to the medium (biomineralized), purified; copies: 12

Target: the molecule itself
Test: negative-stain TEM and DLS; purified biomineralized ferritin, 0.1 mg/mL; stained with 1% uranyl acetate, JEM-1400 80 kV TEM; DLS at 25 °C; assembly of the subunits into the protein cage

Binding result, binds:
B1
B2
B3
